Entries after “also recorded” stand apart in the source; their conditions may differ.
Tests used:
[1] = design: species or system E. coli
Excerpt: (§1) The sequences of these designs are not related to those of proteins with known structure (BLAST E-values ranged from 0.11 to 1.9 against the non-redundant protein database) and fold into the designed structure in silico (FIG. 2A). Synthetic genes encoding the designs were expressed in E. coli. […] The crystal structure of BB1 solved at 1.6 Å resolution was very close to the design model (within 1.4 Å RMSD over 99 residues of the 109 residues, FIG. 2F-G, deviations from the design are shown in FIG. 10) and had no close structural homolog in the PDB (highest TM-score <0.8). Essentially all of the key features of the design model are found in the crystal structure. The cross-section of the structure resembles the square cavity of the design model, which is not observed in any existing natural β-barrel crystal structures (FIG. 21), and is shaped by the designed glycine kinks. All 7 designed turns and β-bulges are correctly recapitulated in the crystal structure (FIG. 2H,J), along with the 3-10 helix and tryptophan corner (FIG. 2K).
(§2) Protein expression and purification. Genes encoding the nonfunctional β-barrel designs (41 from parametric design and 4 from fragment-base design) were synthesized and cloned into the pET-29 vector (GenScript, Inc). Plasmids were then transformed into BL21*(DE3) E. coli strain (NEB, Inc). […]

[2] = Circular dichroism, thermal and GuHCl denaturation; format: physicochemical
Procedure: Circular dichroism (CD). Purified protein samples were prepared at 0.5 mg/ml in 20 mM Tris buffer (150 mM NaCl, pH8.0) or PBS buffer (25 mM phosphate, 150 mM NaCl, pH7.4). Wavelength scans from 195 nm to 260 nm were recorded at 25 degrees Celsius, 75 degrees Celsius, 95 degrees Celsius and cooling back to 25 degrees Celsius. Thermal denaturation was monitored at 220 nm or 226 nm from 25 degrees Celsius to 95 degrees Celsius. Near-UV wavelength scan from 240 nm to 320 nm and tryptophan fluorescence emission were recorded in the absence and presence of 5M guanidinium chloride (GuHCl). Chemical denaturation in GuHCl was monitored by both tryptophan fluorescence and near-UV CD signal at 285 nm. The concentration of the GuHCl stock solution was measured with a refractometer (Spectronic Instruments, Inc). Far-UV CD experiments were performed on an AVIV model 420 CD spectrometer (Aviv Biomedical, Inc). Near-UV CD and tryptophan fluorescence experiments were performed on a Jasco J-1500 CD spectrometer (Jasco, Inc). Protein concentrations were determined by 280 nm absorbance with a NanoDrop™spectrophotometer (ThermoScientific, Inc). Melting temperatures were estimated by smoothing the sparse data with a Savitsky-Golay filter of order 3 and approximating the smoothed data with a cubic spline to compute derivatives. Reported Tm values are the inflection points of the melting curves.

[3] = Size-exclusion chromatography (SEC, SEC-MALS); format: physicochemical; conditions: oligomeric state
Excerpt: as §1, §2

B1: BB1: SEQ ID NO 1; nonfunctional de novo β-barrel design, stable monomer (protein)
chain: MVDAAQYFPGTWEFRFRSSDGKEYRGTVEMQPRTPTEIEIRFKGQSSDGRPVEGRGSIEVRSPYEYRFEMQSSDGARWEGTLQVRSPDSVEVRFKSSDGREYSGEFRRQE
modifications: (1)..(1) optionally absent
Q: With B1 as the molecule, how does the Solubility [1] read?
A: The Solubility was “yes”.

Q: And the “β CD spectrum” value [2]?
A: The value was “yes”.

Q: And the Thermal stability ([2]; CD)?
A: Its Thermal stability is “unchanged at 95 °C; also recorded: stable at 95 degree Celsius; also recorded: does not temperature denature”.

Q: What about the “Cooperative unfolding transition in guanidine” value ([2]; near UV CD signal and tryptophan fluorescence) of the same molecule?
A: Its value is 2.5 M.

Q: What about the SEC [3] of the same molecule?
A: Its SEC is “monomer”.
